Source: patent publication US20220064216A1 (ANBITION S R L, published 2022)
Values belong to the binder of their own block, whether it stands above or below them. Square brackets hold non-standard residues; d marks the D form. Ends that are not written are not given here. * marks the point of attachment. Met(O2) = CS(=O)(=O)CC[C@H](N)C(=O)O; Cha = N[C@@H](CC1CCCCC1)C(=O)O; Bn = c1ccc(C*)cc1

How the values were obtained:
[1] = target: T1, human recombinant receptor VEGFR-1, the form consisting of the seven extracellular domains of the receptor … (human, UniProt P17948 27-758); test: competition ELISA, VEGFR-1-Fc coated, VEGF-A as competing ligand
T1 construct: Bought reagent; also called Flt-1; not shown: Fc domain of human IgG
Method: The human recombinant receptor VEGFR-1, in particular the form consisting of the seven extracellular domains of the receptor fused to the Fc domain of human IgG (R&D Systems, cat No. 321-FL), was made to adhere in the wells of 96-well microplates at a concentration of 0.5 μg/ml in PBS pH 7.5 (100 μl/well) for 16 hours at room temperature (RT).
The binding reaction was conducted for one hour at 37° C., followed by one hour at room temperature.

[2] = target: T2, human recombinant receptor VEGFR-1, the form consisting of the seven extracellular domains of the receptor fused to the Fc domain of human IgG (R&D Systems, cat No. 321-FL) (human), P17948; test: competition ELISA, VEGFR-1-Fc coated, PlGF 5 ng/ml as competing ligand, peptide at 780 nM
T2 chain: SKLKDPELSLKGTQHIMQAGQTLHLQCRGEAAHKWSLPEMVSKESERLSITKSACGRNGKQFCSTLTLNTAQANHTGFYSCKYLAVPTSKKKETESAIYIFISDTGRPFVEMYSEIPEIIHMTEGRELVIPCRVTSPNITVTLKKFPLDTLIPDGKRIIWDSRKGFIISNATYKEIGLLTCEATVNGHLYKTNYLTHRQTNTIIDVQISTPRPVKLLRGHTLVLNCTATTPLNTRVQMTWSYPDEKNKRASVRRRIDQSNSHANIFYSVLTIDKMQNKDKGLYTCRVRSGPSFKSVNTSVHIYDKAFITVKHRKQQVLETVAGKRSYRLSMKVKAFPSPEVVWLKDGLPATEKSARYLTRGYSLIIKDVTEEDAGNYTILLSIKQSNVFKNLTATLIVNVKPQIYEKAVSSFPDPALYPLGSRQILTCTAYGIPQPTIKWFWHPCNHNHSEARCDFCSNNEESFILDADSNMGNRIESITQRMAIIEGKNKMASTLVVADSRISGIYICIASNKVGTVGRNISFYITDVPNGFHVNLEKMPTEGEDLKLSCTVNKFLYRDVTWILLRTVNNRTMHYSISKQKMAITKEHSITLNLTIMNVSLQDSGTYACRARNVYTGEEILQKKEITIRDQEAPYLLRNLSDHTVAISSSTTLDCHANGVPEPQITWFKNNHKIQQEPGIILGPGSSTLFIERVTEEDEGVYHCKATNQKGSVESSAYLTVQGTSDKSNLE

[3] = target: T2, human recombinant receptor VEGFR-1, the …; test: competition ELISA, VEGFR-1-Fc coated, VEGF-A as competing ligand
[4] = target: T2, human recombinant receptor VEGFR-1, the …; test: competition ELISA, VEGFR-1-Fc coated, PlGF 5 ng/ml as competing ligand, peptide at 1560 nM
[5] = target: T2, human recombinant receptor VEGFR-1, the …; test: competition ELISA, VEGFR-1-Fc coated, VEGF-A 5 ng/ml as competing ligand, peptide at 25000 nM
[6] = target: T2, human recombinant receptor VEGFR-1, the …; test: competition ELISA, VEGFR-1-Fc coated, PlGF 5 ng/ml as competing ligand, peptide at 12500 nM
[7] = target: T2, human recombinant receptor VEGFR-1, the …; test: competition ELISA, VEGFR-1-Fc coated, VEGF-A 5 ng/ml as competing ligand, peptide at 6250 nM
[8] = target: T2, human recombinant receptor VEGFR-1, the …; test: competition ELISA, VEGFR-1-Fc coated, PlGF 5 ng/ml as competing ligand, peptide at 3125 nM
[9] = target: T2, human recombinant receptor VEGFR-1, the …; test: competition ELISA, VEGFR-1-Fc coated, VEGF-A 5 ng/ml as competing ligand, peptide at 1560 nM
[10] = target: T2, human recombinant receptor VEGFR-1, the …; test: competition ELISA, VEGFR-1-Fc coated, VEGF-A 5 ng/ml as competing ligand, peptide at 3125 nM
[11] = target: T2, human recombinant receptor VEGFR-1, the …; test: competition ELISA, VEGFR-1-Fc coated, PlGF 5 ng/ml as competing ligand, peptide at 50000 nM
[12] = target: T2, human recombinant receptor VEGFR-1, the …; test: competition ELISA, VEGFR-1-Fc coated, PlGF 5 ng/ml as competing ligand, peptide at 25000 nM
[13] = target: T2, human recombinant receptor VEGFR-1, the …; test: competition ELISA, VEGFR-1-Fc coated, VEGF-A 5 ng/ml as competing ligand, peptide at 12500 nM
[14] = target: T2, human recombinant receptor VEGFR-1, the …; test: competition ELISA, VEGFR-1-Fc coated, PlGF as competing ligand
[15] = target: T2, human recombinant receptor VEGFR-1, the …; test: competition ELISA, VEGFR-1-Fc coated, VEGF-A 5 ng/ml as competing ligand, peptide at 780 nM
[16] = target: T2, human recombinant receptor VEGFR-1, the …; test: competition ELISA, VEGFR-1-Fc coated, VEGF-A 5 ng/ml as competing ligand, peptide at 50000 nM
[17] = target: T2, human recombinant receptor VEGFR-1, the …; test: competition ELISA, VEGFR-1-Fc coated, PlGF 5 ng/ml as competing ligand, peptide at 6250 nM
[18] = target: T2, human recombinant receptor VEGFR-1, the …; test: competition ELISA, VEGFR-1-Fc coated, PlGF or VEGF-A as competing ligand; reference iVR1

B2: iVR1, tetrameric peptide of formula (IIc): [H-(R-Glu)-(S-Cys(Bzl))-(S-Cha)]4-Lys2-Lys-Gly-NH2 (peptide)
peptide: H-[dE]-Cys(Bn)-[Cha]
chain 1: Lys
chain 2: Lys-Gly-NH2
modifications: also: branched tetramer: four arms on alpha and epsilon amines of two Lys, each bonded to an amine of the Lys of chain 3
- binding % (residual PlGF binding to VEGFR-1) [2]: 99.4%
- IC50 [3]: 10000 nM
- binding % (residual PlGF binding to VEGFR-1) [4]: 101%
- binding % (residual VEGF-A binding to VEGFR-1) [5]: 21.4%
- binding % (residual PlGF binding to VEGFR-1) [6]: 44.6%
- binding % (residual VEGF-A binding to VEGFR-1) [7]: 66%
- binding % (residual PlGF binding to VEGFR-1) [8]: 96.1%
- binding % (residual VEGF-A binding to VEGFR-1) [9]: 96.2%
- binding % (residual VEGF-A binding to VEGFR-1) [10]: 93.9%
- binding % (residual PlGF binding to VEGFR-1) [11]: 26.3%
- binding % (residual PlGF binding to VEGFR-1) [12]: 36%
- binding % (residual VEGF-A binding to VEGFR-1) [13]: 37%
- IC50 [14]: 10000 nM
- binding % (residual VEGF-A binding to VEGFR-1) [15]: 98.4%
- binding % (residual VEGF-A binding to VEGFR-1) [16]: 8.6%
- binding % (residual PlGF binding to VEGFR-1) [17]: 68.5%

B3: iVR1-Cys, tetrameric peptide of formula (IIb): [H-(R-Glu)-(S-Cys(Bzl))-(S-Cha)]4-Lys2-Lys-(D-Cys)-NH2 (peptide)
peptide: H-[dE]-Cys(Bn)-[Cha]
chain 1: Lys
chain 2: Lys-[dC]-NH2
modifications: also: branched tetramer: four arms on alpha and epsilon amines of two Lys, each bonded to an amine of the Lys of chain 3
- binding % (residual PlGF binding to VEGFR-1) [2]: 83.8%
- IC50 [3]: 1000 nM
- binding % (residual PlGF binding to VEGFR-1) [4]: 35.5%
- binding % (residual VEGF-A binding to VEGFR-1) [5]: 7.99%
- binding % (residual PlGF binding to VEGFR-1) [6]: 12.6%
- binding % (residual VEGF-A binding to VEGFR-1) [7]: 12.5%
- inhibitory capacity, fold against iVR1 [18]: 10 fold
- binding % (residual PlGF binding to VEGFR-1) [8]: 25.5%
- binding % (residual VEGF-A binding to VEGFR-1) [9]: 43.7%
- binding % (residual VEGF-A binding to VEGFR-1) [10]: 21.7%
- binding % (residual PlGF binding to VEGFR-1) [11]: 9.18%
- binding % (residual PlGF binding to VEGFR-1) [12]: 10.3%
- binding % (residual VEGF-A binding to VEGFR-1) [13]: 9.81%
- IC50 [14]: < 1000 nM
- binding % (residual VEGF-A binding to VEGFR-1) [15]: 92.3%
- binding % (residual VEGF-A binding to VEGFR-1) [16]: 6.5%
- binding % (residual PlGF binding to VEGFR-1) [17]: 14.1%

More lines, now with the values ahead:

- IC50 [1]: 4620 nM
B1: tetrameric peptide having formula (II) with Y2 = L-methionine sulfone (peptide)
peptide: [dE]-Cys(Bn)-[Cha]
chain 1: Lys
chain 2: Lys-[Met(O2)]-NH2
modifications: also: branched tetramer: four arms on both amines of two Lys, each bonded to an amine of the Lys of chain 3
notes: Described only as a tetrameric peptide of formula (II) with Y2 different from D-cysteine

- IC50 [1]: 2430 nM
B4: tetrameric peptide having formula (II) with Y2 = D-serine (peptide)
peptide: [dE]-Cys(Bn)-[Cha]
chain 1: Lys
chain 2: Lys-[dS]-NH2
modifications: also: branched tetramer: four arms on both amines of two Lys, each bonded to an amine of the Lys of chain 3
notes: as for B1

- IC50 [1]: 2030 nM
B5: tetrameric peptide having formula (II) with Y2 = L-cysteine (peptide)
peptide: [dE]-Cys(Bn)-[Cha]
chain 1: Lys
chain 2: Lys-Cys-NH2
modifications: also: branched tetramer: four arms on both amines of two Lys, each bonded to an amine of the Lys of chain 3
notes: as for B1
